Laboratory results reported in US20090074779A1 (COPENHAGEN UNIVERSITY, published 2009).

T1: P75 receptor (UniProt P08138 29-250, limits assumed)
T1 construct: also called p75NTR; p75(NTR)
T1 sequence (looked up): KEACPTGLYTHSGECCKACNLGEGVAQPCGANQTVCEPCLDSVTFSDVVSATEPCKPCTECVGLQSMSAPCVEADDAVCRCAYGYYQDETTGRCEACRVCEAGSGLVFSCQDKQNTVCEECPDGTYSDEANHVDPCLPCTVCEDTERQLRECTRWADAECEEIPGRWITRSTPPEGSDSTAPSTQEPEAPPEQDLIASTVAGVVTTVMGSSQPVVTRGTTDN


Columns and labels:
Experiment in all cases: SPR (BIAlite), receptor amine-coupled on CM4 chip, ligand injected, 25 C
TrkB = target: T2, TrkB (UniProt Q16620 32-430, limits assumed)
T2 construct: also called NTRK2; TrkB receptor
T2 sequence (Q16620 32-430 limits assumed): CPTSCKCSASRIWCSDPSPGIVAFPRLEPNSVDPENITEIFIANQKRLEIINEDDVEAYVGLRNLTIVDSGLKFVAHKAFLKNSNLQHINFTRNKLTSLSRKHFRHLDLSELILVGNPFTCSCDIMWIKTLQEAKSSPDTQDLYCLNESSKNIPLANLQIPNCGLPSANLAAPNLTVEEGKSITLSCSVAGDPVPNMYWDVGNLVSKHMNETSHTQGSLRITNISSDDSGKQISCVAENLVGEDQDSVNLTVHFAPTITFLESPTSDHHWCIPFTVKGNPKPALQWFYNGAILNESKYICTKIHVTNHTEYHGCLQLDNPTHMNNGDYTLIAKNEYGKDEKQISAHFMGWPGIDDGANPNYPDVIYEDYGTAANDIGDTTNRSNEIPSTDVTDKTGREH
Experimental: (§1) The TrkA, TrkB and TrkC receptors and p75^NTR were immobilized on a sensor chip, CM4, using an amine-coupling kit as follows: the chip was activated by 20 μl activation solution, N-hydroxysuccinimide, (NHS) and N-ethyl-N′-(3-[…])-carbodiimide (EDC), the protein was immobilized using 30 μl of a mixture of 4 μl (0.5 μg/ml) protein in 50 μl 10 mM sodium acetate buffer (pH 4.0); and the chip was blocked by 35 μl blocking solution (ethanolamine-HCl). The receptor surface was regenerated between ligand injections with 15 μl 2 mM NaCl or 10 mM glycine-HCl, pH 2.5. In the present experiments a flow rate of 5 μl/min was used.
(§2) The curve corresponding to the difference between binding to the Trk receptors or the […] receptor and a blank chip was used for analysis.

TrkC = target: T3, TrkC (UniProt Q16288 32-429, limits assumed)
T3 construct: also called NTRK3; TrkC receptor
Experimental: as §1, §2

P75 receptor = target: T1, P75 receptor
Experimental: as §1, §2

TrkA = target: T4, TrkA (UniProt P04629 34-413, limits assumed)
T4 construct: also called NTRK1; TrkA receptor
T4 sequence (P04629 34-413 limits assumed): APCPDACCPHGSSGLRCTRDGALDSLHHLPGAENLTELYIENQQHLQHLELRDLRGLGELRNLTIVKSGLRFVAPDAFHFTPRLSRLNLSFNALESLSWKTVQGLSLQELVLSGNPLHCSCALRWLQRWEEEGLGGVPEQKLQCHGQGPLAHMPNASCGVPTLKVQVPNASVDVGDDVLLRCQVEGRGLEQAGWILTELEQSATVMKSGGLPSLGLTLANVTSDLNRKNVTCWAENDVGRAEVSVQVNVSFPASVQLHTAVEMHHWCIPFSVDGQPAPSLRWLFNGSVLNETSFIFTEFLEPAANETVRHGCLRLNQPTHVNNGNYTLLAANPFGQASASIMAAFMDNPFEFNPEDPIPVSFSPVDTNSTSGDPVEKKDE
Experimental: as §1, §2

Binder	Kd (TrkB) [nM]	Kd (TrkC) [nM]	Kd (P75 receptor) [nM]	Kd (TrkA) [nM]
CVLSRKAVRRA [NGF-C2]	883	658	385	727
RGIDSKHWNSY (also called NGF derived peptide NGF-E) [NGF-E]	254	1060	2600	

Binders with a lower Kd (TrkB), results first:

Kd (TrkB) [nM]	Kd (TrkC) [nM]	Kd (P75 receptor) [nM]	Kd (TrkA) [nM]	Binder
173	697	556		RGIDKRHWNSQ (also called BDNF derived peptide BDNF-E) [BDNF-E]
38.7	166	110		SYVRALTMDSKKRIGWR (also called BDNF derived peptide BDNF-EE) [BDNF-EE]
1.18		0.0584		BDNF (ligand, UniProt P23560 129-247, looked up, also called brain-derived neurotrophic factor) HSDPARRGELSVCDSISEWVTAADKKTAVDMSGGTVTVLEKVPVSKGQLKQYFYETKCNPMGYTKEGCRGIDKRHWNSQCRTTQSYVRALTMDSKKRIGWRFIRIDTSCVCTLTIKRGR
10.3	51.9	226		TFVKALTMDGKQAAWR (also called NGF derived peptide NGF-EE) [NGF-EE]
